Assay results published in the DeepSol protein solubility set.

Test: soluble on expression in E. coli; label from the status in PepcDB or PDB records

Sequence	soluble on expression in E. coli
MSLAEFIYTMRKVRKAHGDKVILDDVNLNFLPGAKIGVVGPNGAGKSSVLRIMAGLDTPNNGDAYLAPGASVGILQQEPHLDETKTVRENVEEGVPIKGKLNRYNEVAELMATDYSDELMEEMGRLQEELDAADAWDIDSQLEQAMDALRCPPPDEPVTHLSGGERRRVALCKLLLSKPDLLLLDEPTNHLDAESVLWLEQHLASYKGAILAVTHDRYFLDNVAEWILELDRGRAYPYEGNYSTYLEKKAERLEVQGKKDQKLQKRLKEELAWVRSGAKARQAKNKARLGRYEEMAAEAEKSRKLDFEEIQIPTPPRLGNVVVEVEHLDKGFEGRTLIKDLSFTLPRNGIVGVIGPNGVGKTTLFKTIVGLEQPDSGVVRVGDTVKLSYVDQNRAGIDPKKNVWEVVSDGLDYIEVGQNEIPSRAYVSAFGFKGPDQQKPAGVLSGGERNRLNLALTLKEGGNLILLDEPTNDLDVETLSSLEHALEQFPGCAVVISHDRWFLDRTCTHILAWEGDDDNEAKWFWFEGEGHHHHHH	soluble
MSLAEKPIKLGVLEDQSGDFAVATIGKVHAIQLAADEINKAGGIMGRPLELVVYDTQSDNTRYQEFMRRVLQRDKADAVFAGFSSASREAYRPIVDQLNGLAFYNNQYEGGVCDGHMIVTGAVPEQQFSTLIPWMMEKYGKKVYTLAADYNFGQISAEWVRNIVKQHGGEMAGVEFIPLGVSQFSQSIQNIQKAKPDFVVTLLVGTAQASYYEQAASANVNLPMASSVNVGQGYEHKRFKPPSLKDMYVTTNYIEEIDSPQSKAFLAKFKAKFPNEPYVNQEAENSYLAVYLYKQMVERAKSTNRDEIRKVIAQGDVCMDAPEGKVCIDPKSQHMSHTIYLAHVNADHSIDFPKVWPDIKPYWLGEAGCDLTKKDPMAQYTPSNEGHHHHHH	soluble
MSLAELTALYTLTAQMKREGICRLLVLSGEEGWCFDHALKLRDALPGDWLWISPQLDAENHCSPSALQTLLGREFRHAVFDARHGFDAAAFAALSGTLKAGSWLVLLLPVWEEWENQPDADSLRWSDCPDPIATPHFVQHLKRVLTADNDAILWRQNQPFSLAHFTPRTDWHPATGAPQPEQQQLLQQLLTMPPGVAAVTAARGRGKSALAGQLISRIAGSAIVTAPAKAATDVLAQFAGEKFRFIAPDALLASDEQADWLVVDEAAAIPAPLLHQLVSRFPRTLLTTTVQGYEGTGRGFLLKFCARFPHLHRFELQQPIRWAQGCPLEKMVSEALVFNDENFTHTPQGNIVISAFEQTLWRSEPETPLKVYQLLSGAHYRTSPLDLRRMMDAPGQHFLQAAGENEIAGALWLVDEGGLSQELSQAVWAGFRRPRGNLVAQSLAAHGSNPLAATLRGRRVSRIAVHPARQREGTGRQLIAGALQYTHDLDYLSVSFGYTGELWRFWQRCGFVLVRMGNHREASSGCYTAMALLPMSDAGKQLAEREHYRLRRDAQALAQWNGEMLPVDPLNDAILSDDDWLELAGFAFAHRPLLTSLGCLLRLLQTSELALPALRGRLQKNASDAQLCTTLKLSGRKMLLVRQREEAAQALFALNEVRTERLRDRITQWQFFHEGHHHHHH	soluble
MSLAERLEIMVPSGSYVSFMRNTVTPEFNKLYPEVNLVVSNDEQLDTRMAAGDNPNVYIGVFGYQPAKLAKLGKLAYLDKFPGFAELNERIDPHFLRENFGRTYYIPWNATTQMMIYNKELFAEAGLDPERPPATWDEFLLAAEKISALPPRSDGSKVYGTVFWNDVLSFGSWYWNLLTPMYYNVNQGQYQLLNRYGTDIVFDRPDANMAQFMRTMQQAQRFAPLTMEKSFFSRNIGMWLQFGFGWKATLSSAAERPMVVGQDVAIAPIPVQTKGDIHYSVLDGRAIMIFKDEARKEQLSWALLNLLMRDDINLQANIALGQLPTLKALQDAPYFQSAEAQPFVQQLQHAILSEPFANAMEVANIILANYSKVVLKGEISPEQAVATSAQAARQLLNEHEGHHHHHH	soluble
MSLAGCTSPANNGAGGDENGETVYRVAYVARTQSDSFAAWLANAISEEADKYDNIIIDVFDGQASDSTQNSLIENAITSNYDAIIIQPNNGEAQKSYAEQAVAAGIITITTNARIEGVQGASSVDADPYEQAKVNADVALEQIPQNANVVVLKGPPGNFHADARRDSWQKEFFDKRPDVTIVGEEIANWNKDEAMTYMETWVQANSKIDAIIAMNDNMAAGALEVVRDDSNFAGMLSYGVDGTAEAVLLIQEGVMTQTSLQSAYDLATALLDTSNKLLTGAETQIDIDIDAPVINSDNVEEYVEMHKRAGAIREGHHHHHH	soluble
MSLAHEMRDGSSRGLRIDFHVHLGVYADHKPWVTEWIKQSQPDPGEYDAYIERYSDPGAFEELLAAEGVDYACVLAELCPITTGICSNEQVEAFCKGRKRLIPFCSINPHLTTDLGGELRRLVETEGFRGLKLYPSYQHYYLNDPRVYPLYQAAQELGIPVLIHTGSSVFKGTRIKYCDPIHLDDVANDFPSLNLVMAHSGRGFWYDRAFFLSKLHSNLYMEVSGLPPSKLMTYFPELARNTDKVIFGSDWPGASQIKRNMDAIGALPLPAEGVEKILGGNAARLLNFEGHHHHHH	soluble
MSLAKLDETLTMLKDLTDAKGIPGNEREVRQVMKSYIEPFADEVTTDRLGSLIAKKTGAENGPKIMIAGHLDEVGFMVTQITDKGFIRFQTVGGWWAQVMLAQRVTIVTKKGEITGVIGSKPPHILSPEARKKSVEIKDMFIDIGASSREEALEWGVLPGDMIVPHFEFTVMNNEKFLLAKAWDNRIGCAIAIDVLRNLQNTDHPNIVYGVGTVQEEVGLRGAKTAAHTIQPDIAFGVDVGIAGDTPGISEKEAQSKMGKGPQIIVYDASMVSHKGLRDAVVATAEEAGIPYQFDAIAGGGTDSGAIHLTANGVPALSITIATRYIHTHAAMLHRDDYENAVKLITEVIKKLDRKTVDEITYQEGGSHHHHHH	soluble
MSLAKQDELVFLPLGGVGEIGMNLALYGYGPPEHRQWIMVDCGVTFPGPDLPGVDLVLPDIRFLASERKNLKAIIITHAHEDHYGALADLWPGLNVPVYASGFTAGLLEAKRNFEKAKIGEVPVTPFKAGDTINVGPFSIEGVAVNHSIPEPMSLMIRTPVGNVIHTGDWKIDHEPSLGPLTDETRFRQLGDEGVLALMCDSTNALRDGVSPSEKDVSESLRKIIENAEGRVAITTFSSNVGRIRTVAEAAEAAGREVLLLGSSLKRVVDVAQDVGLMEGVKPFISEEEYGYIPRDKVVVILTGSQGEARAALAKLSRDEMRNVAFAAGDIVVFSSRAIPGNEKAIQDIKNGLVEQGVHIITDTEALVHVSGHPRRNELQRMYEWTRPKIVVPVHGEATHLTAHKELAEQSGIALVPRVRNGDILRLAPGEGHHHHHH	soluble
MSLAKTVEEINQKIREGNVVVVTAAEMKDIVEELGPEKAAKEVDVVTTGTFGAMCSSGAFFNFGHADPPIKMQRVWMNDVEAYTGIAAVDAYLGVTQLSESVEEYGGSHVIEELVKGREVELKATAYGTDCYPRKEIVTEVSLEDVNQAVMVNPRNAYQRYNAATNSSNKLLRTYMGTLLPNFGNVTFAGTGEISPLNNDPEYRTIGIGTRIFLCGAKGYVIGEGTQHAPPYGTLMVKGNLKEMKPEYMKAAYFPGYGATLFVGIGIPIPILDAEMAKFTAVRNSEIETKILDFGVARRDRPVVRKVTYEELISGRVEINGEEVRVSPLSSFYMAEKIMKELKRQIERGEFLLTAPVDRIPTKEVFKPMRQREVKVVKSVMVEAYTISPETAIEEAARIMMDKGINHIPVVEEGRLVGIITSWDIAKAVARNRKGAVKSIMTRNVIYTHPDEPVEVAARKMEQNNISALPVVDSRKRVLGIVTSEDLSKLIAREGHHHHHH	soluble
MSLALDLLLLPTWLVPVEPAGVVLREHGLGIRDGHIVFIGPRAEALKYRATEIRELPDTLLTPGLINAHGHAAMTLFRGLADDLLLMTWLEKHIWPAEAKWVDEAFVRDGTDLAIAEQIKGGITCFSDMYFFPKVASERVHNSGMRAQVAIPILDFPIPGAQNADEAIRQGVELFGDLKHHPRINITFGPHAPYTVGDENLEKIRIIAEELDAAIHMHVHETAHEVQQSVEQHGERPLARLARLGLLGPRFQAVHMTQISDDDLALLVETNTSVIHCPESNLKLASGFCPVERLWQAGVNVAVGTDGAASNNDLDLLGETRTAALLAKAVAGSATALDAHRALRMATLNGARAMGLESQVGSLEIGKAADLTAFDLSGLAQQPIYDPVSQLIYATGRDCVKHVWVAGKQLLDDRCLTRLDEHQLGATARDWARRISGHEGHHHHHH	soluble
MSLALLNVDKLSVHFGDESAPFRAVDRISYSVKQGEVVGIVGESGSGKSVSSLAIMGLIDYPGRVMAEKLEFNGQDLQRISEKERRNLVGAEVAMIFQDPMTSLNPCYTVGFQIMEAIKVHQGGNKSTRRQRAIDLLNQVGIPDPASRLDVYPHQLSGGMSQRVMIAMAIACRPKLLIADEPTTALDVTIQAQIIELLLELQQKENMALVLITHDLALVAEAAHKIIVMYAGQVVETGDAHAIFHAPRHPYTQALLRALPEFAQDKERLASLPGVVPGKYDRPNGCLLNPRCPYATDRCRAEEPALNMLADGRQSKCHYPLDDAGRPTEGHHHHHH	soluble
MSLAMKKHLFTLTLSSVLAIPAVSHAEFKGGFADIGIHYLDWTSRTTEKSSTKSHKDDFGYLELEGGANFSWGEMYGFFDWENFYNDRHDKPGSEQRYTFKNTNRIYLGDTGFNLYLHAYGTYGSANRVNFHDDMFLYGIGYNFTGSGWWFKPFFAKRYTDQTYYTGDNGYVAGWVAGYSFMLGSEKFTLTNWNEYEFDRDATYAAGNGGKEGLNGAVALWWNATSHITTGIQYRYADDKLGEDFYQDAIIYSIKFNFEGHHHHHH	not soluble
MSLANKILTEKDTDQIRFSILASGSSGNATLVETGDQKILIDCGLSGKKMEGLFAQVGRDMNDLDAILITHEHSDHIKGLGVLARKYKLPIYANAKTWKAMDNMIGEVSSDQKFQFDMETVKTFGSMQVESFGVSHDAIEPMFYIFHKGNKKFVMITDTGYVSDRMKGHIAGADAYLFESNHDVEMLRMGRYPWNVKRRILGDEGHVSNEDAAIAMSEVITDQTKRIYLGHLSKDNNMKELARMSVTQTLMAEGIDVGGKLEIFDTDPDNATSIFTEGHHHHHH	not soluble
MSLAPQRCHRFQSSAYRSNQWRYRGRCDSIQFAVDRRVFIAGLGLYGSSSGKAEYSVKIELKRLGVVLAQNLTKFMSDGSSNTFPVWFEHPVQVEQDTFYTASAVLDGSELSYFGQEGMTEVQCGKVAFQFQCSSDSTNGTGVQGGQIPELIFYAEGHHHHHH	soluble
MSLAQRLATGKAGSIGLVMPTAPGHQSDVHFGEFLAGLGEEAVRHDFHFVIMPSDPDDEVAALRRLAISGNVDALFIAYMRGHDPRLAMLKSLSMPYVVHGRSFGAELDYPYLDIDNEGAFYDATRLLLQLGHTRFALMNGPMHLDFAIRRRNGVISALAERGLTLEEDCMSHALMTDEQGLLAMERFLQLPERPTAILCSSTVMALGAIRAVNQAGLRLGEDVSLIAHDDVLPLLKPENFSVPLTTTRSSLRAAGVRIAQRLIGTVKQAGPFPEQELWKTELIVRASTGPAPQEGHHHHHH	soluble
MSLARSTPAIVILGQGSLDTARQIQRLYPDSLIHGLAERVEGADRVYHEFGATLRQLYQQDTPIIALCAAGIVIRTLAPLLLEKGAEPPVLAVAEDGSAVVPLLGGLGGVNVMAREIAAGLGVAAAITTSGELRFGTCLLNPPSGYALGDLELGKRFVSDLLGGESVRIEGAAPWLAAAKLPENDQARLTIRVGSAEREPVANELLIYPRSVLVACRGQRLAGEADSDLATHIRQALHQARIAVQSVACLLAADRDMADRALHQAAAQLGVPLRFLPAADSVAELAQQAVPQLLPPLKVGEDIAIAVASQPLDPEQIGRPRGRLAVIGLGPGAAELMVPAVKAELARANDILGYETYVRMAGPFRADQVMHCTDNREEMQRARHAFELAAQGRSVVVVSSGDPGVFAMAAAVIEALHESSDPAWHSVDLEILPGVSASLATAAQAGAPLGHDFCVLSLSDNLKPWDIIEKRLDLASQADLALAFYNPISRSRPWQLGRALEIVRQHRTPQTPVVLGRDIGRPGQTLRVITLGELTPEQVDMRTMVLVGSSTTCVFPRAGGGDWVYTPRWYGNKEGHHHHHH	soluble
